Laboratory results reported in patent US11879149B2, “Quantification method of ethanolamine phosphate, oxidoreductase for quantification, composition for quantification, kit for quantification and sensor for quantification” (KIKKOMAN CORPORATION, priority 2018, dated 2024).

B1: SrAOX3925: amine oxidase derived from Syncephalastrum racemosum, GenBank ID ORZ03925.1, SEQ ID NO: 25 (protein, listed as Syncephalastrum racemosum)
chain: MTIVSPSHPLDPLTPSEIRHVAEIVRATRSPDDKTPRDYIFSSICLKEPHKDKTLAYLQSVSEEAAALMPEREALVILIDRPSGLVHEILVSITDEKVKSAKTLKNVQPTQHVLEMIEAEKIITKDPSVIEECRKLGITDMKNVYADPWTVGYHAQFKSSKRLMQALMYMRTSPDDNQYAHPLDFVPIYDVNAQKVVEILRQETSEASKYDRPTVPLENHQFLPEHIGVENLRKDIKPIEITQPEGVSFTVRGREIEWQNWSMHVGFNYREGVIINNVSYKDKGNVRPLFYRVSVSEMVVPYAHPKEPFNHKMAFDVGEYGLGNLTNSLELGCDCLGSIYYMDGVCNNLDGEPWVIPNAICIHEEDTGLLFKHTDYRTDKAHSARSRRLVISQIVTAANYDYGLYFYFYQDGTFQYEVKATGELNTQVFAEDENPAPYGTAVAPQVVGQHHQHLFMMRIDPMLDGRLNSVAQVDVLPSEYPVGHVENPIGNAFSPITTIYSDTTEAQAHGNLESSRTWKIINESKLHPYTKEPVGYKLVSPNTPPMLPKPGSLVYERAKFATKTIWVTPYDPDQIYPAGFYCSQSPGDDSMGLPAWTKEPQSVRGRDVVVWLTFGLTHIPRVEDFPVMPVETCGWALKACNFFLGNPGIDIPAAQKGTSKRVNGACCA
B2: LaTDH: large subunit of taurine dehydrogenase from Paracoccus denitrificans, amino acid sequence SEQ ID NO: 1, expressed in E. coli (protein)
chain: MQAIEKRAGALPYDPLYDPVTARGLGPRSDYAPTYWIGTAGAPPPDDGPVTGDMDADVVVIGSGYTGLSCALHLAKMHGIKAVVLEANGVAYGCSTRNGGQAQVSSGRLKRSQWIERWGLDVARRLHAEVCEGFDLFRGLIRDHAIDCDPQDGGHYYIAHKASAMPALEKETALLRDTFGYDARMISRDELHETVARDQEAHGAMWEADGVGIHAAKLAFGYLRAARELGARVHVDSPVQGWEYRNGVHHLRTPGGTVRARRVAVATAAYAPRSLHPRLRDRLMPIMSNSIVTRVLTPAELEAVGIRKLSPLTDTRTLRHYYRLLPDNRLQIGSRAAITGRDAANPAHLDALREGMARKFPALRGIALDYSWWGWVDVSHDMMPRITGLPDLPGAFYALGYGGNGVMYSAMAGRRMAQLVAGEAVPDLPIFNNELPHEGWRTPFRRLGQWGLYKFYHYRDERR
modifications: Paracoccus denitrificans
B3: LrHP: hypothetical protein derived from Lichtheimia ramosa, GenBank ID CDS02610.1, SEQ ID NO: 20 (protein, listed as Lichtheimia ramosa)
chain: MSSSPIKPYPLDPLTADEIRRAAALIRETRGQDTTYVFNSLTLKEPSKQQMMSYLGWTNSPSHPKPVTIDREVFAVLIDRPSGLVHEMTVNLDKNQVTRWNKVEGRQPTVNVFEMLEAEREILKDERVKEQCRQLGINDMSMVFADPWGVGYHEIKGKRLVQALMYARTSPDDNQYAHPLDFNPLYDVNAKKVIDIIVSKRRNSSFDRPVIPMANHHFLPEHLGQDRLRKDIKPIEITQPQGVSFSIRDGHQLHWQKWDMHLSFNYREGLVINNLSYRDMDGTVRPIIYRMSLSEMVVPYANPYKPYNHKMAFDVGEYGLGNLTNSLELGCDCVGKICYLDATLSDLNGDPWQIPNAICIHEEDTGLLFKHTDYRTGKAHSARSRRLVISHIVTAANYDYGLYYYFYQDGTIQYEVKATGELNTQVLAADEDAAPYGTIVAPQVDAQHHQHLFSMRIDPMVDGPNNSVAEVDVVASDLPVGHPHNSIGNSFYPVTKVFNTTDEAKTMASIERHRSWKIINENKIHPYAKQPVGFKMMAHPTPPLLPKPGSIVYERAMFASKTLWVTPYNEEQRYPGGFYCYQSEPSENLGLPQWTKETQNVRDTDIVCWLNFGITHIPRVEDFPIMPIETCGVMLKPVNFFLGNPGIDIPPSTRQSTKSAYATEATCCRKNNL
B4: SrEAOX: ethanolamine oxidase derived from Syncephalastrum racemosum, GenBank ID BAU20376.1, SEQ ID NO: 35 (protein, listed as Syncephalastrum racemosum)
chain: MTLPTTIHPLDPLSPEEIRHVSEIIRKQRAADETTYIFNSIALREPPKEQILAHFGWTDGPKPVQIDRQAFAVLIDRPSGLVHEIIVSITTASIVSWETKEGVQPTLHVQEMLEAEQVMLKDERVIEECRKLGIEDMSMVFADTWGVGWHKTKGKRLMQALMYMRTSPDDNQYAHPLDFTPLYDVNEQKVIDVLVAKRRNSKFERPVIPRADRQFLPEHLGEENLRKDIKPIEITQPQGVSFQIRGHEIDWQKWNLHVGFNYREGLVINNVSYKDMDGTVRPMFYRVSLAEMVVPYANPYEPYNHKMAFDVGEYGLGNLTNSLELGCDCVGSIFYMDGVCSDIKGDAWVIPNAICIHEEDTGLLFKHTDFRNNKAHSARSRRLVISHIVTAANYDYGLYYYFYQDGTFQYEVKATGELNTHVLAEDEDPAPYGTIVAPQVDAQHHQHLFSMRIDPMVDGPTNSVAQVDVVASDLPVGHPDNAVGNAFSPVTTIYADTDEARARANGETSRYWKIINETRIHPYTKEPVGFKLMCPNTPPMLPKPGSIAYERAVFASNTVWVTPYDAEQLFPGGFYCYQSDPADRLGLPEWTREKKDVKNKDIVLWLTFGLTHIPRVEDFPIMPVETCGFMLKPCNFFLANPGIDIPASDRHSSKSAYAPAVANGEYGITNGTTNGSSCCSKGH
B5: LcAOX: amine oxidase derived from Lichtheimia corymbifera, GenBank ID CDH56199.1, SEQ ID NO: 15 (protein, listed as Lichtheimia corymbifera)
chain: MSSSSSATPKPHPLDPLSADEIRRAAAIIREKRGQDTSYVFNSLTLKEPAKQQMMLYLGWVNSSSQPKPVTIDREVFAVLIDRPSGLVHEMTVNLDKSAVTSWNKVEGRQPTINIFEMLEAEREILKDERVKDQCRQLGITDMSMVYADPWGVGYHEIKGKRLVQALLYARTSPDDNQYAHPLDFNPLYDLNAKKVLDIVVSKRRNSSFERPVIPMANHHFLPEHLGEDRLRKDIKPIEITQPQGVSFSIRDGHQLHWQKWDMHLSFNYREGLVINNLSYRDMDSTVRPIIYRMSLAEMVVPYANPYKPYNHKMAFDVGEYGLGNLTNSLELGCDCVGKIGYLDAVLSDLNGDPWHIPNAICIHEEDTGLLFKHSDYRTGKAHSARSRRLVISHIVTAANYDYGLYYYFYQDGTIQYEVKATGELNTQVLAEDEDAAPYGTIVAPQVDAQHHQHLFSMRIDPMLDGPNNSVAEVDVVASDLPVGHPHNSVGNSFYPVTKVFNTTDEAKTMASVERHRTWKIINESKIHPYAKQPVGFKMMAHPTPPLLPKPGSIVYERAMFASKTLWVTPHNDKQLYPGGFYCYQSEPSENLGLPQWTKETQNVRDTDIVCWLNFGITHIPRVEDFPIMPIETCGIMLKPANFFLCNPGIDIPPSTRQSTKSAYANDATCCRKNNL
B6: SrAOX3926: amine oxidase derived from Syncephalastrum racemosum, GenBank ID ORZ03926.1, SEQ ID NO: 30 (protein, listed as Syncephalastrum racemosum)
chain: MTVSAVIHPLDPLSPEEIRHASAIIRRERSADKTIFIFNSISLREPPKDQVLAHFGWAAGPKPAQIDRQAFVVLIDRPSGLVHEIIVSLTTSSVVSWNRKQGVQPTLHVQEMLEAEEVMLKDERVIEECRKLGIEDMSLVFADTWGVGWHKTKGKRLMQALMYMRTSPDDNQYAHPLDFTPLYDVNEQKVIDVLVAKRRNSKFERPVIPRADHQFLPEHLGEGNLRKDIKPIEIIQPEGVSFQIRGHEIDWQKWNLHIGFNYREGLVISNVSYKDMDGTVRPVFYRVSLAEMVVPYANPYEPYNHKMAFDVGEYGLGNLTNSLELGCDCVGSIFYMDGVCSDLKGDAWVIPNAICIHEEDTGLLFKHTDFRNNKAHSARSRRLVISHIVTAANYDYGLYYYFYQDGTFQYEVKATGELNTHVLAEDENPAPYGTIVAPQIDAQHHQHLFSMRIDPMVDGPTNSVAQVDVVASDLPVGHPDNAVGNAFSPITTIYANTDEAQARANGETSRYWKIINEDKIHPYTREPVGFKLMCPNTPPMLPKPGSIAYERAVFASKTVWVTPYDAEQLFPGGFYCYQSDPADRLGLPEWTKGKKDVKNKDIVLWLTFGLTHIPRVEDFPIMPVETCGFMLKPCNFFLANPGIDIPASDKHSTKSAYAHALTNGANGTGNGSTNGSSCCNKNY

Experiments:
Type in all cases: biochemical
[1] = Oxidase activity measurement of LcAOX, LrHP, SrAOX3925, SrAOX3926, SrEAOX (4-AA/TOOS/POD, A555); conditions: pH 7.5; for oxidase activity of the crude enzymatic solution against EAP: crude enzyme solution, 50 mM EAP final; for oxidase activity of the crude enzymatic solution against EAP / oxidase activity against EAP after being purified: 37° C.; for oxidase activity against EAP after being purified: purified preparation
Procedure: Oxidase activity was measured for LcAOX, LrHP, SrAOX3925, SrAOX3926, SrEAOX expressed by the methods described above. After incubating 580 μl of a reagent consisting of the composition of Table 12 at 37° C. for 5 minutes, 20 μl of a substrate solution (1500 mM EAP) was added and mixed, and the amount of change at A555 (ΔAS) per 1 minute at 37° C. was measured using the spectrophotometer (U-3900, manufactured by Hitachi High-Tech Science Corporation). Subsequently, 20 μl of ion-exchanged water was added instead of the substrate solution and mixed, and the amount of change at A555 (ΔA0) per 1 minute at 37° C. was measured.
The oxidase activity was calculated based on the following formula: Oxidase activity (U/ml)=(ΔAS−ΔA0)×600.0×df/(39.2×0.5×x)=30.6×(ΔAS−ΔA0)×df/x • 39.2: Millimolar extinction coefficient (mM^−1cm^−1) of 4-AA-TOOS Condensation dye for 555 nm-wavelength light • df: Dilution rate of enzyme solution (Quantification of EAP by LrHP)

[2] = Evaluation of substrate specificity of crude enzyme solution (PMS/DCIP, 96-well plate); conditions: 5 mM substrate, potassium phosphate buffer pH 8.0, PMS
Procedure: An activity measurement using 2, 6-Dichlorophenolindophenol (DCIP) was performed in a 96-well plate. […] As the substrate, taurine (manufactured by Fujifilm Wako Pure Chemical Corporation), ethanolamine phosphate (EAP, manufactured by Fujifilm Wako Pure Chemical Corporation), ethanolamine (manufactured by Tokyo Chemical Industry, Co., Ltd.), and benzylamine (manufactured by Tokyo Chemical Industry Co., Ltd.) were used.

[3] = Quantification of EAP by LrHP by electrochemical methods (chronoamperometry); conditions: +600 mV (Ag/AgCl); 0 μM to 1400 μM and 0 μM to 170 μM EAP; FIG. 6, FIG. 7
Procedure: 20 μl of 150 mM Bicine-NaOH buffer solution (pH 7.5), 15 μl of 1.5 M potassium chloride solution, and 5 μl of LrHP solution (0.14 U/ml) were applied and mixed on a SCREEN-PRINTED ELECTRODES (manufactured by DropSens, Product Number DRP-C110). A dedicated connector (DRP-CAC) was then used to connect to ALS electrochemical analyzer 814D. Chronoamperometric measurements were performed at +600 mV (Ag/AgCl). Subsequently, 2 μl of EAP solution at each concentration was added, and the current value at 100 seconds after the initiation of measurement was recorded. Similar experiments were carried out using 5 μl of ultrapure water (ion-exchanged water) instead of LrHP solution as a control experiment.

Row | Molecule | oxidase activity of the crude enzymatic solution against EAP [1] [U/L] | oxidase activity against EAP after being purified [1] [U/ml] | further results
1 | B1 | 2.6 | 0.16 | –
2 | B2 | – | – | degree of loss of blue color derived from DCIP (dehydrogenase activity), substrate benzylamine [2]: did not react; degree of loss of blue color derived from DCIP (dehydrogenase activity), substrate ethanolamine [2]: did not react; degree of loss of blue color derived from DCIP (dehydrogenase activity), substrate ethanolamine phosphate [2]: also reacted; degree of loss of blue color derived from DCIP (dehydrogenase activity), substrate taurine [2]: reacted most
3 | B3 | 5.8 | 0.31 | current value at 100 seconds after the initiation of measurement with increasing EAP [3]: current value also increased; oxidase activity of purified LrHP solution used in the quantification reagent ([1]; final concentration of 50 mM EAP): 0.14 U/ml (*purified LrHP solutions)
4 | B4 | 16 | – | –
5 | B5 | 1.8 | 0.11 | –
6 | B6 | 0.2 | – | –
